Experimental findings from article PMC11255602 are described below.

The target of test [1] is PRMT1 E27 (N-terminal truncation lacking the first 26 amino acids) (UniProt Q99873). The experiment in a line: native gel or EMSA. Background: In EMSA bound probe runs differently from free probe, usually more slowly.
Test [2] deals with PRMT1 S14 (N-terminal truncation lacking the first 13 amino acids) (UniProt Q99873). The experiment in a line: native gel or EMSA.

In test [1], “PRMT1 E27 (N-terminal truncation lacking the first 26 amino acids) (from UniProt Q99873-3 27-353) (domain or fragment)” came in with a stoichiometry N of 4.
Take “PRMT1 S14 (N-terminal truncation lacking the first 13 amino acids) (from UniProt Q99873-3 14-353) (domain or fragment)”: in test [2], the stoichiometry N amounted to 4.

A word on the stoichiometry N: it is the number of molecules, sites or subunits per partner or assembly.
